Measured values published in patent publication CN108424448A (UNIV ZHEJIANG, dated 2018).

Biological target: ZEBOV-VP40蛋白C端的特异的抗原肽13肽 […] (扎伊尔型埃博拉病毒 (Zaire ebolavirus))
Assay: indirect ELISA on coated VP40 peptide (hybridoma screening, P/N≥2.1 positive)

B1: 抗埃博拉病毒VP40蛋白单克隆抗体F1B4 (antibody, V domains shown)
VH: EVRLQQSGPELGKPGASVKISCKTSGYVFTEYTIHWMKQSHGKSLEWIGNIYPKNGGTAYSQKFKGRATLSADKSSRTAYIELRSLTSEDSAVYYCARDNYGFDCWGQGTTLTVSS
VL: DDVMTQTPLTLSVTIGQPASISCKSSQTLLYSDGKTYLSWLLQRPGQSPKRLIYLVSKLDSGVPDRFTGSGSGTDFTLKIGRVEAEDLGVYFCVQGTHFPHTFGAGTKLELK
  binding result: binds
